# Data taken from patent US11311631B2, “Paclitaxel-albumin-binding agent compositions and methods for using and making the same” (Mayo Foundation for Medical Education and Research, priority 2016, dated 2022).
# Target: T1, CD20+ Daudi lymphoma cells (Homo sapiens, UniProt P11836)
# T1 construct: co-incubated with CD20+ Daudi lymphoma cells for 30 minutes at room temperature; endogenous in cells; host or cells: Daudi lymphoma cells
# T1 sequence (P11836 1-297): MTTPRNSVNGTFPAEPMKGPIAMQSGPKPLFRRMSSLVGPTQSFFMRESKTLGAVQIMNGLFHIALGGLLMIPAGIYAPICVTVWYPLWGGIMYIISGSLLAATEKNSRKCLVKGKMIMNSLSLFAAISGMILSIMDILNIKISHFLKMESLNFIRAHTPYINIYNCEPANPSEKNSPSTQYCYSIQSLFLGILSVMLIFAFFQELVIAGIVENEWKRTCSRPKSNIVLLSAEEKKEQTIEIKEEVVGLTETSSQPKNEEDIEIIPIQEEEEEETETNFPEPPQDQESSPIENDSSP
# Assay: Daudi cell CD20 blocking (subsequent PE anti-human CD20 staining)
# Assay type: cell-based
# Conditions: co-incubated with CD20+ Daudi cells 30 minutes at room temperature
# Procedure: […] show blocking of CD20-positive Daudi cells with isotype control (FIG. 5A), anti-CD20 antibody (FIG. 5B), ABRAXANE® (FIG. 5C), AR160 (FIG. 5D), NTP (FIG. 5E), rituximab-bound NTP (NTRit; FIG. 5F), or rituximab alone (FIG. 5G).
# ABX, AR160, Non-toxic nanoparticle (NTP) and rituximab-bound NTP were prepared as described above or previously (see, e.g., PCT Pub. No. WO2014/055415, which is incorporated herein by reference in its entirety). The nanoparticles and unlabeled rituximab were co-incubated with CD20+ Daudi lymphoma cells for 30 minutes at room temperature. The cells were washed and subsequently stained with PE anti-human CD20. Isotype (FIG. 5A) and anti-CD20 (FIG. 5B) stained cells served as negative and positive controls, respectively.
substance,measurement,value
rituximab: anti-CD20 antibody (Rituxan),blocking of subsequent binding of PE anti-human CD20,block subsequent binding of PE anti-human CD20
